Results on 5 substances are retold here after US20150057236.

Series [1] deals with ACS2 K628 (623-632 + WW) acetyl peptide.
In series [2] the test system is ACS2 K628 (623-632 + WW) malonyl peptide.
Series [3] relates to ACS2 K628 (623-632 + WW) succinyl peptide.
Series [4] addresses GDH K503 (498-509 + WW) acetyl peptide (UniProt P00367).
Series [5] deals with GDH K503 (498-509 + WW) malonyl peptide (UniProt P00367).
The target in series [6] is GDH K503 (498-509 + WW) succinyl peptide (UniProt P00367).
For series [7], the target named is H3 K9 (4-13 + WW) acetyl peptide (UniProt P68431).
For series [8], the target named is H3 K9 (4-13 + WW) malonyl peptide (UniProt P68431).
Series [9] has as its target H3 K9 (4-13 + WW) succinyl peptide (UniProt P68431).
The subject of series [10] is H3K9 acetyl peptide.
In series [11] the test system is H3K9 malonyl peptide.
Series [12] has as its system H3K9 succinyl peptide.
The test system of series [13] is KQTAR(SuK)-AMC peptide.

Marks after values point to notes of the source that are not given here.

Sequence of human Sirt5 (chain, as listed by the source): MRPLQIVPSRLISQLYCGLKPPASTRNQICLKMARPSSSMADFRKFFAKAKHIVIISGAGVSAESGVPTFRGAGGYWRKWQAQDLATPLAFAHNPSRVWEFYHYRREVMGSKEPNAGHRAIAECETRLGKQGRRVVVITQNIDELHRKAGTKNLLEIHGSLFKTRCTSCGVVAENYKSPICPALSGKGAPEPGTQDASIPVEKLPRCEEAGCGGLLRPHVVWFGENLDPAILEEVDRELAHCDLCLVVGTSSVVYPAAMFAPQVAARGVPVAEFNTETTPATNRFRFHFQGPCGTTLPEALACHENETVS
Sequence of Sirt5 R105M (chain, as listed by the source R105M): as the sequence (chain, as listed by the source) above, with R105M counted along it
Sequence of Sirt5 Y102F (chain, as listed by the source Y102F): as the sequence (chain, as listed by the source) above, with Y102F counted along it
Sequence of Sirt5 H158Y (chain, as listed by the source H158Y): as the sequence (chain, as listed by the source) above, with H158Y counted along it

Regarding human Sirt5, in [1], the “Peptide Km (µM), deacetylation” value was “ND (>750)” and the kcat/Km (s^-1M^-1), deacetylation stood at 18 s^-1M^-1. Further, in series [2], the Peptide Km (µM), demalonylation is 150 µM; the kcat (s^-1), demalonylation is 0.079 s⁻¹; the kcat/Km (s^-1M^-1), demalonylation worked out at 520 s^-1M^-1. Also, in series [3], the Peptide Km (µM), desuccinylation was found to be 450 µM; the kcat (s^-1), desuccinylation is 0.268 s⁻¹; the kcat/Km (s^-1M^-1), desuccinylation was 600 s^-1M^-1. For the same substance, in series [4], the “Peptide Km (µM), deacetylation” value is “ND (>750)” and the kcat/Km (s^-1M^-1), deacetylation is < 2 s^-1M^-1. In series [5], the Peptide Km (µM), demalonylation was found to be 8.7 µM; the kcat (s^-1), demalonylation amounted to 0.014 s⁻¹; the kcat/Km (s^-1M^-1), demalonylation turned out to be 1600 s^-1M^-1. In addition, in series [6], the Peptide Km (µM), desuccinylation worked out at 14 µM; the kcat (s^-1), desuccinylation is 0.028 s⁻¹; the kcat/Km (s^-1M^-1), desuccinylation is 2000 s^-1M^-1. In series [7], the “Peptide Km (µM), deacetylation” value was “ND (>750)” and the kcat/Km (s^-1M^-1), deacetylation turned out to be 7.8 s^-1M^-1. Besides, in series [8], the Peptide Km (µM), demalonylation worked out at 6.1 µM; the kcat (s^-1), demalonylation is 0.037 s⁻¹; the kcat/Km (s^-1M^-1), demalonylation was 6100 s^-1M^-1. In addition, in series [9], the Peptide Km (µM), desuccinylation was 5.8 µM; the kcat (s^-1), desuccinylation was 0.025 s⁻¹; the kcat/Km (s^-1M^-1), desuccinylation was 4300 s^-1M^-1. In [10], the “Km for acetyl peptide (µM)” value is “ND (>750)*”; the “Km for peptide (µM), deacetylation” value was “ND (>750)*”; the “hydrolysis of acyl peptide (LC-MS)” value was “with Sirt5, very little hydrolysis of the acetyl peptide was observed”; the kcat/Km (s^-1M^-1) was determined as 2 s^-1M^-1. Besides, the kcat/Km (s^-1M^-1), deacetylation in series [10] was determined as 2 s^-1M^-1. In addition, the “hydrolysis of acyl peptide (LC-MS)” value in [11] was “the malonyl and succinyl peptides were hydrolyzed significantly”. Further, in series [12], the Km for peptide (µM), desuccinylation is 41 µM; the “hydrolysis of acyl peptide (LC-MS)” value was “the malonyl and succinyl peptides were hydrolyzed significantly”; the kcat (s^-1), desuccinylation came out at 0.029 s⁻¹; the kcat/Km (s^-1M^-1), desuccinylation is 710 s^-1M^-1. Besides, in series [13], the “percent hydrolysis in 3 hrs, 1 µM Sirt5 (HPLC)” value is 10% and 60% hydrolysis by 1 and 5 µM of Sirt5 in 3 hrs; the “percent hydrolysis in 3 hrs, 5 µM Sirt5 (HPLC)” value was 10% and 60% hydrolysis by 1 and 5 µM of Sirt5 in 3 hrs.
As to Sirt5 R105M, in [10], the “Km for peptide (µM), deacetylation” value was “ND (>750)*” and the kcat/Km (s^-1M^-1), deacetylation is 0.5 s^-1M^-1. In series [12], the “Km for peptide (µM), desuccinylation” value was “ND (>750)*” and the kcat/Km (s^-1M^-1), desuccinylation was determined as 0.9 s^-1M^-1.
On to Sirt5 H158Y, for which, in [12], the “Km for peptide (µM), desuccinylation” value is “ND (>750)*” and the kcat/Km (s^-1M^-1), desuccinylation stood at 75 s^-1M^-1.
Sirt5 Y102F: in [10], the “Km for peptide (µM), deacetylation” value is listed as “ND (>750)*” and the kcat/Km (s^-1M^-1), deacetylation stood at 2 s^-1M^-1. Also, in series [12], the “Km for peptide (µM), desuccinylation” value is “ND (>750)*” and the kcat/Km (s^-1M^-1), desuccinylation is 397 s^-1M^-1.
As to human Sirt6, the “hydrolysis of acyl peptide (LC-MS)” value in series [10] was “Sirt6 and Sirt7 have no detectable activity on acetyl, malonyl, or succinyl peptides under the conditions tested”; in [11], “Sirt6 and Sirt7 have no detectable activity on acetyl, malonyl, or succinyl peptides under the conditions tested”; in series [12], “Sirt6 and Sirt7 have no detectable activity on acetyl, malonyl, or succinyl peptides under the conditions tested”.
